Measured values from the supplement of paper PMC12458215.
± gives the uncertainty stated by the source.

test system: HEK293T; test: plasma membrane surface immunostaining intensity (anti-HA, deep receptor scanning) (arbitrary fluorescence units); higher = higher plasma membrane expression; conditions: GPCR class: A

Point of comparison: “MNEDLKVNLSGLPRDYLDAAAAENISAAVSSRVPAVEPEPELVVNPWDIVLCTSGTLISCENAIVVLIIFHNPSLRAPMFLLIGSLALADLLAGIGLITNFVFAYLLQSEATKLVTIGLIVASFSASVCSLLAITVDRYLSLYYALTYHSERTVTFTYVMLVMLWGTSICLGLLPVMGWNCLRDESTCSVVRPLTKNNAAILSVSFLFMFALMLQLYIQICKIVMRHAHQIALQHHFLATSHYVTTRKGVSTLAIILGTFAACWMPFTLYSLIADYTYPSIYTYATLLPATYNSIINPVIYAFRNQEIQKALCLICCGCIPSSLAQRARSPSDV [GPR12]”, “plasma membrane surface immunostaining intensity” value 1260 ± 200. Against it:
- MNATGTPVAPESCQQLAAGGHSRLIVLHYNHSGRLAGRGGPEDGGLGALRGLSVAASCLVVLENLLVLAAITSHMRSRRWVYYCLVNITLSDLLTGAAYLANVLLSGARTFRLAPAQWFLREGLLFTALAASTFSLLFTAGERFATMVRPVAESGATKTSRVYGFIGLCWLLAALLGMLPLLGWNCLCAFDRCSSLLPLYSKRYILFCLVIFAGVLATIMGLYGAIFRLVQASGQKAPRPAARRKARRLLKTVLMILLAFLVCWGPLFGLLLADVFGSNLWAQEYLRGMDWILALAVLNSAVNPIIYSFRSREVCRAVLSFLCCGCLRLGMRGPGDCLARAVEAHSGASTTDSSLRPRDSFRGSRSLSFRMREPLSSISSVRSI [S1PR4] — higher, 6452 ± 53
- MNECHYDKHMDFFYNRSNTDTVDDWTGTKLVIVLCVGTFFCLFIFFSNSLVIAAVIKNRKFHFPFYYLLANLAAADFFAGIAYVFLMFNTGPVSKTLTVNRWFLRQGLLDSSLTASLTNLLVIAVERHMSIMRMRVHSNLTKKRVTLLILLVWAIAIFMGAVPTLGWNCLCNISACSSLAPIYSRSYLVFWTVSNLMAFLIMVVVYLRIYVYVKRKTNVLSPHTSGSISRRRTPMKLMKTVMTVLGAFVVCWTPGLVVLLLDGLNCRQCGVQHVKRWFLLLALLNSVVNPIIYSYKDEDMYGTMKKMICCFSQENPERRPSRIPSTVLSRSDTGSQYIEDSISQGAVCNKSTS [LPAR3] — higher, 5905 ± 32
- MNPDLDTGHNTSAPAHWGELKNANFTGPNQTSSNSTLPQLDITRAISVGLVLGAFILFAIVGNILVILSVACNRHLRTPTNYFIVNLAMADLLLSFTVLPFSAALEVLGYWVLGRIFCDIWAAVDVLCCTASILSLCAISIDRYIGVRYSLQYPTLVTRRKAILALLSVWVLSTVISIGPLLGWKEPAPNDDKECGVTEEPFYALFSSLGSFYIPLAVILVMYCRVYIVAKRTTKNLEAGVMKEMSNSKELTLRIHSKNFHEDTLSSTKAKGHNPRSSIAVKLFKFSREKKAAKTLGIVVGMFILCWLPFFIALPLGSLFSTLKPPDAVFKVVFWLGYFNSCLNPIIYPCSSKEFKRAFVRILGCQCRGRGRRRRRRRRRLGGCAYTYRPWTRGGSLERSQSRKDSLDDSGSCLSGSQRTLPSASPSPGYLGRGAPPPVELCAFPEWKAPGALLSLPAPEPPGRRGRHDSGPLFTFKLLTEPESPGTDGGASNGGCEAAADVANGQPGFKSNMPLAPGQF [ADRA1B] — higher, 6200 ± 240
- MNPPSGPRVPPSPTQEPSCMATPAPPSWWDSSQSSISSLGRLPSISPTAPGTWAAAWVPLPTVDVPDHAHYTLGTVILLVGLTGMLGNLTVIYTFCRSRSLRTPANMFIINLAVSDFLMSFTQAPVFFTSSLYKQWLFGETGCEFYAFCGALFGISSMITLTAIALDRYLVITRPLATFGVASKRRAAFVLLGVWLYALAWSLPPFFGWSAYVPEGLLTSCSWDYMSFTPAVRAYTMLLCCFVFFLPLLIIIYCYIFIFRAIRETGRALQTFGACKGNGESLWQRQRLQSECKMAKIMLLVILLFVLSWAPYSAVALVAFAGYAHVLTPYMSSVPAVIAKASAIHNPIIYAITHPKYRVAIAQHLPCLGVLLGVSRRHSRPYPSYRSTHRSTLTSHTSNLSWISIRRRQESLGSESEVGWTHMEAAAVWGAAQQANGRSLYGQGLEDLEAKAPPRPQGHEAETPGKTKGLIPSQDPRM [OPN4] — lower, 519 ± 36
- MNPTDIADTTLDESIYSNYYLYESIPKPCTKEGIKAFGELFLPPLYSLVFVFGLLGNSVVVLVLFKYKRLRSMTDVYLLNLAISDLLFVFSLPFWGYYAADQWVFGLGLCKMISWMYLVGFYSGIFFVMLMSIDRYLAIVHAVFSLRARTLTYGVITSLATWSVAVFASLPGFLFSTCYTERNHTYCKTKYSLNSTTWKVLSSLEINILGLVIPLGIMLFCYSMIIRTLQHCKNEKKNKAVKMIFAVVVLFLGFWTPYNIVLFLETLVELEVLQDCTFERYLDYAIQATETLAFVHCCLNPIIYFFLGEKFRKYILQLFKTCRGLFVLCQYCGLLQIYSADTPSSSYTQSTMDHDLHDAL [CCR4] — lower, 186 ± 14
- MNTSAPPAVSPNITVLAPGKGPWQVAFIGITTGLLSLATVTGNLLVLISFKVNTELKTVNNYFLLSLACADLIIGTFSMNLYTTYLLMGHWALGTLACDLWLALDYVASNASVMNLLLISFDRYFSVTRPLSYRAKRTPRRAALMIGLAWLVSFVLWAPAILFWQYLVGERTVLAGQCYIQFLSQPIITFGTAMAAFYLPVTVMCTLYWRIYRETENRARELAALQGSETPGKGGGSSSSSERSQPGAEGSPETPPGRCCRCCRAPRLLQAYSWKEEEEEDEGSMESLTSSEGEEPGSEVVIKMPMVDPEAQAPTKQPPRSSPNTVKRPTKKGRDRAGKGQKPRGKEQLAKRKTFSLVKEKKAARTLSAILLAFILTWTPYNIMVLVSTFCKDCVPETLWELGYWLCYVNSTINPMCYALCNKAFRDTFRLLLLCRWDKRRWRKIPKRPGSVHRTPSRQC [CHRM1] — higher, 2530 ± 130

same assay, conditions: GPCR class: A (Olfactory)

Point of comparison: “MNDDGKVNASSEGYFILVGFSNWPHLEVVIFVVVLIFYLMTLIGNLFIIILSYLDSHLHTPMYFFLSNLSFLDLCYTTSSIPQLLVNLWGPEKTISYAGCMIQLYFVLALGTTECVLLVVMSYDRYAAVCRPLHYTVLMHPRFCHLLAVASWVSGFTNSALHSSFTFWVPLCGHRQVDHFFCEVPALLRLSCVDTHVNELTLMITSSIFVLIPLILILTSYGAIVRAVLRMQSTTGLQKVFGTCGAHLMAVSLFFIPAMCIYLQPPSGNSQDQGKFIALFYTVVTPSLNPLIYTLRNKVVRGAVKRLMGWE [OR2J3]”, “plasma membrane surface immunostaining intensity” value 184 ± 45. Against it:
- MMIKKNASSEDFFILLGFSNWPQLEVVLFVVILIFYLMTLTGNLFIIILSYVDSHLHTPMYFFLSNLSFLDLCHTTSSIPQLLVNLRGPEKTISYAGCMVQLYFVLALGIAECVLLVVMSYDRYVAVCRPLHYTVLMHPRFCHLLAAASWVIGFTISALHSSFTFWVPLCGHRLVDHFFCEVPALLRLSCVDTHANELTLMVMSSIFVLIPLILILTAYGAIARAVLSMQSTTGLQKVFRTCGAHLMVVSLFFIPVMCMYLQPPSENSPDQGKFIALFYTVVTPSLNPLIYTLRNKHVKGAAKRLLGWEWGK [OR2J2] — lower, 82.9 ± 16
- MNPENWTQVTSFVLLGFPSSHLIQFLVFLGLMVTYIVTATGKLLIIVLSWIDQRLHIQMYFFLRNFSFLELLLVTVVVPKMLVVILTGDHTISFVSCIIQSYLYFFLGTTDFFLLAVMSLDRYLAICRPLRYETLMNGHVCSQLVLASWLAGFLWVLCPTVLMASLPFCGPNGIDHFFRDSWPLLRLSCGDTHLLKLVAFMLSTLVLLGSLALTSVSYACILATVLRAPTAAERRKAFSTCASHLTVVVIIYGSSIFLYIRMSEAQSKLLNKGASVLSCIITPLLNPFIFTLRNDKVQQALREALGWPRLTAVMKLRVTSQRK [OR6T1] — lower, 112 ± 19
- MNSENLTRAAVAPAEFVLLGITNRWDLRVALFLTCLPVYLVSLLGNMGMALLIRMDARLHTPMYFFLANLSLLDACYSSAIGPKMLVDLLLPRATIPYTACALQMFVFAGLADTECCLLAAMAYDRYVAIRNPLLYTTAMSQRLCLALLGASGLGGAVSAFVHTTLTFRLSFCRSRKINSFFCDIPPLLAISCSDTSLNELLLFAICGFIQTATVLAITVSYGFIAGAVIHMRSVEGSRRAASTGGSHLTAVAMMYGTLIFMYLRPSSSYALDTDKMASVFYTLVIPSLNPLIYSLRNKEVKEALRQTWSRFHCPGQGSQ [OR5C1] — within error, 177 ± 14

same assay, conditions: GPCR class: Taste

For “MNGDHMVLGSSVTDKKAIILVTILLLLRLVAIAGNGFITAALGVEWVLRRMLLPCDKLLVSLGASRFCLQSVVMGKTIYVFLHPMAFPYNPVLQFLAFQWDFLNAATLWSSTWLSVFYCVKIATFTHPVFFWLKHKLSGWLPWMLFSSVGLSSFTTILFFIGNHRMYQNYLRNHLQPWNVTGDSIRSYCEKFYLFPLKMITWTMPTAVFFICMILLITSLGRHRKKALLTTSGFREPSVQAHIKALLALLSFAMLFISYFLSLVFSAAGIFPPLDFKFWVWESVIYLCAAVHPIILLFSNCRLRAVLKSRRSSRCGTP [TAS2R60]”, the “plasma membrane surface immunostaining intensity” value was 137 ± 36.
